In patent US20140072558A1:

Molecular target: ACVR2B as used in surface plasmon resonance (UniProt Q13705)
Experiment: SPR; with 0.625 nM B09

Sequence of ACVR2B as used in surface plasmon resonance (Q13705 19-134): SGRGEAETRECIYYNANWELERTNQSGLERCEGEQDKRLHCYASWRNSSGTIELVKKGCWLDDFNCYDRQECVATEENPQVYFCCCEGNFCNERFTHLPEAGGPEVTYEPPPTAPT

Kd: 4.07E-10 ?
Substance: water-soluble DLK1 treated together with the B09 antibody (from UniProt P80370 25-302)
